We go through 1 molecule from patent US20090041783A1 (MOCHIDA PHARMACEUTICAL, published 2009).

The target in experiment [1] is T1, human platelet membrane glycoprotein VI (GPVI) on human platelets (human, UniProt Q9HCN6 21-339).
T1 construct: whole, on cells
T1 sequence (looked up): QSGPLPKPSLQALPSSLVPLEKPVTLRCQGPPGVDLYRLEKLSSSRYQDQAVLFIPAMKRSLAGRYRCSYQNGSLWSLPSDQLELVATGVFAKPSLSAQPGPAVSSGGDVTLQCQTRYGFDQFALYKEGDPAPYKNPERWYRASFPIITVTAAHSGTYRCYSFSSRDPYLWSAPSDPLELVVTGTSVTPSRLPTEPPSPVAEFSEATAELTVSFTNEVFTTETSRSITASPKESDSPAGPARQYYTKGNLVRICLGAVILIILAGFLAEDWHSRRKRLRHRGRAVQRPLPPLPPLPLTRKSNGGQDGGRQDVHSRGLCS
The experiment in a line: flow cytometry on human platelets, 3-4 µg/mL antibody, anti-human IgM-FITC. The method, then: Cynomolgus monkey and human PRPs prepared by the method described in 18-1 of EXAMPLE 18 were diluted with FACS buffer to make the platelet concentration 3.75×10⁸ cells/mL. To the diluted PRP, cF1232-37-2 (IgM) or cF1232-43-3 (IgM) prepared in the above 29-2 was added at the final concentration of 3-4 μg/mL, and stood at 25° C. for 30 minutes. After incubation, the platelet was washed with FACS buffer. Subsequently, after adding anti-human IgM-FITC (BD Biosciences Pharmingen) and standing at room temperature for 30 minutes, the platelet was washed with FACS buffer and the fluorescence intensity of the platelet was measured with flow cytometer CYTOMICS FC500 (BECKMAN COULTER). As a result, it was confirmed that both antibodies of cF1232-37-2 (IgM) and cF1232-43-3 (IgM) bind to the monkey and the human platelet.

Experiment [2] concerns the target T2, human GPVI extracellular region-human Fc fusion protein (hGPVI-hFc) (human).
T2 construct: Expressed in COS-1, purified on Protein A; also called GPVI-HHH-hFc; hGPVIHHH-hFc
Put plainly: ELISA on immobilised hGPVI-hFc, anti-human mu-chain detection. For orientation: ELISA stands for enzyme-linked immunosorbent assay.

B1: mouse/human chimeric IgM-type F1232-37-2, cF1232-37-2 (IgM) (antibody)
VH: VQLQQSGPELVRPGESVKISCKGSGYTFTDYAIHWVKLSHAKSLEWIGVISIYYDDTNYNQKFKGKATMTVDKSSSTAYLELARLTSEDSAIYYCARRRDSSGPYAMDYWGQGTSVTVSS
VL: DIVLTQSPASLAVSLGQRATISCRASESVDSYGNSFMHWYQQKPGQPPKLLIYRASNLESGIPARFSGSGSRTDFTLTINPVEADDVATYYCQQSNEDPYTFGGGTKLEIKRADAA
chain: not shown
notes: Heavy chain: V region of cF1232-37-2 with human mu-chain constant region (pTK-2820); the CDRs of both clones are printed identical; Human kappa constant region
In the case of B1, the binding result in experiment [1] and in experiment [2] was “binds” each time.
